# Tested on: Escherichia coli TOP10
# Test: shrunken log2 fold change of peptide-encoding DNA abundance (4.5 h post-induction vs induction); higher = less antimicrobial activity (less host growth inhibition)
# Settings: time post-induction: 4.5 h; library: site-saturation at positions 5, 18, 19, 20
# 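Note: peptides expressed intracellularly from a pBAD plasmid library in pooled LB shake-flask culture, induced with 0.3% L-arabinose, DNA abundance read by NGS, three biological replicates, DESeq2 with apeglm shrinkage.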
row,Sequence,shrunken log2 fold change
1,RRIRTRPPRLPRPRPRPKLMPRP,-0.102
2,RRIRARPPRLPRPRPRPVGQPRP,0.225
3,RRIRVRPPRLPRPRPRPMFPPRP,0.086
4,RRIRLRPPRLPRPRPRPGQCPRP,-0.0373
5,RRIRPRPPRLPRPRPRPDLWPRP,0.344
6,RRIRGRPPRLPRPRPRPWIHPRP,0.0779
7,RRIRCRPPRLPRPRPRPHEGPRP,-0.172
8,RRIRDRPPRLPRPRPRPDVVPRP,-0.0108
9,RRIRLRPPRLPRPRPRPGSEPRP,-0.0984
10,RRIRLRPPRLPRPRPRPETLPRP,0.228
11,RRIRDRPPRLPRPRPRPWWMPRP,0.0169
12,RRIRLRPPRLPRPRPRPQTCPRP,-0.28
13,RRIRERPPRLPRPRPRPRTLPRP,-0.17
14,RRIRQRPPRLPRPRPRPLQYPRP,-0.0199
15,RRIRERPPRLPRPRPRPLNRPRP,0.0599
16,RRIRVRPPRLPRPRPRPQVAPRP,-0.136
17,RRIRPRPPRLPRPRPRPHLLPRP,-0.0988
18,RRIRTRPPRLPRPRPRPEGTPRP,0.0681
19,RRIRWRPPRLPRPRPRPGGQPRP,-0.0831
20,RRIRIRPPRLPRPRPRPLKVPRP,-0.29
21,RRIRWRPPRLPRPRPRPLWDPRP,0.235
22,RRIRIRPPRLPRPRPRPPVPPRP,0.233

row,Sequence,shrunken log2 fold change
1,RRIRQRPPRLPRPRPRPNCGPRP,0.0184
2,RRIRSRPPRLPRPRPRPYQAPRP,-0.0507
3,RRIRVRPPRLPRPRPRPQWMPRP,-0.105
4,RRIRIRPPRLPRPRPRPCPLPRP,-0.751
5,RRIRLRPPRLPRPRPRPVQVPRP,-0.113
6,RRIRHRPPRLPRPRPRPNIMPRP,-0.596
7,RRIRKRPPRLPRPRPRPKFMPRP,-0.0124
8,RRIRRRPPRLPRPRPRPNFCPRP,0.171
9,RRIRSRPPRLPRPRPRPNCAPRP,-0.172
10,RRIRLRPPRLPRPRPRPPGVPRP,0.426
11,RRIRERPPRLPRPRPRPIPKPRP,0.65
12,RRIRVRPPRLPRPRPRPKNDPRP,0.011
13,RRIRWRPPRLPRPRPRPFIVPRP,-0.325
14,RRIRVRPPRLPRPRPRPKFTPRP,-0.0442
15,RRIRQRPPRLPRPRPRPTCNPRP,-0.348
16,RRIRERPPRLPRPRPRPSCDPRP,-0.281
17,RRIRSRPPRLPRPRPRPGRIPRP,-0.0494
18,RRIRCRPPRLPRPRPRPNEDPRP,0.0261
19,RRIRHRPPRLPRPRPRPANTPRP,-0.0313
20,RRIRERPPRLPRPRPRPIARPRP,-0.0237
21,RRIRFRPPRLPRPRPRPCQGPRP,-0.198
22,RRIRERPPRLPRPRPRPGWPPRP,0.398

row,Sequence,shrunken log2 fold change
1,RRIRDRPPRLPRPRPRPMWCPRP,0.00673
2,RRIRVRPPRLPRPRPRPNKYPRP,-0.668
3,RRIRIRPPRLPRPRPRPPMTPRP,-0.0813
4,RRIRGRPPRLPRPRPRPIKHPRP,0.171
5,RRIRSRPPRLPRPRPRPMIMPRP,-0.0825
6,RRIRFRPPRLPRPRPRPLPTPRP,0.336
7,RRIRKRPPRLPRPRPRPFSEPRP,-0.0185
8,RRIRGRPPRLPRPRPRPEIPPRP,0.196
9,RRIRKRPPRLPRPRPRPGEMPRP,1.62
10,RRIRIRPPRLPRPRPRPFPNPRP,-0.939
11,RRIRWRPPRLPRPRPRPSHMPRP,-0.668
12,RRIRLRPPRLPRPRPRPWEQPRP,-0.206
13,RRIRQRPPRLPRPRPRPKSKPRP,-0.123
14,RRIRFRPPRLPRPRPRPHYRPRP,-0.206
15,RRIRLRPPRLPRPRPRPHHMPRP,-0.353
16,RRIRHRPPRLPRPRPRPVVAPRP,-0.233
17,RRIRGRPPRLPRPRPRPGYRPRP,0.189
18,RRIRVRPPRLPRPRPRPRYSPRP,-0.911
19,RRIRQRPPRLPRPRPRPTGQPRP,0.146
20,RRIRCRPPRLPRPRPRPHKNPRP,-0.418
21,RRIRLRPPRLPRPRPRPWFVPRP,-0.399
22,RRIRGRPPRLPRPRPRPSNMPRP,-0.113

row,Sequence,shrunken log2 fold change
1,RRIRTRPPRLPRPRPRPTSEPRP,-0.126
2,RRIRNRPPRLPRPRPRPAIHPRP,0.0529
3,RRIRLRPPRLPRPRPRPTNFPRP,-0.0757
4,RRIRYRPPRLPRPRPRPMPAPRP,0.348
5,RRIRWRPPRLPRPRPRPYYDPRP,-0.262
6,RRIRKRPPRLPRPRPRPDCWPRP,0.825
7,RRIRPRPPRLPRPRPRPMTWPRP,-0.00489
8,RRIRRRPPRLPRPRPRPNFEPRP,0.413
9,RRIRWRPPRLPRPRPRPHFLPRP,1.46
10,RRIRLRPPRLPRPRPRPFHEPRP,-0.101
11,RRIRVRPPRLPRPRPRPMYNPRP,-0.315
12,RRIRVRPPRLPRPRPRPYFLPRP,-0.149
13,RRIRWRPPRLPRPRPRPLLNPRP,0.00531
14,RRIRARPPRLPRPRPRPDDLPRP,-0.00225
15,RRIRLRPPRLPRPRPRPEWRPRP,-0.0482
16,RRIRSRPPRLPRPRPRPVVPPRP,0.0433
17,RRIRLRPPRLPRPRPRPMWTPRP,-0.0582
18,RRIRYRPPRLPRPRPRPWYTPRP,-1.81
19,RRIRERPPRLPRPRPRPRHRPRP,-0.114
20,RRIRGRPPRLPRPRPRPLAGPRP,0.887
21,RRIRRRPPRLPRPRPRPMNIPRP,-0.267
22,RRIRCRPPRLPRPRPRPLGGPRP,0.281

row,Sequence,shrunken log2 fold change
1,RRIRERPPRLPRPRPRPRTNPRP,0.00565
2,RRIRFRPPRLPRPRPRPLVEPRP,-0.0559
3,RRIRVRPPRLPRPRPRPYHFPRP,-0.111
4,RRIRCRPPRLPRPRPRPIDTPRP,-0.385
5,RRIRSRPPRLPRPRPRPENNPRP,-0.449
6,RRIRKRPPRLPRPRPRPQCEPRP,-0.0553
7,RRIRYRPPRLPRPRPRPQSGPRP,-0.223
8,RRIRTRPPRLPRPRPRPVAGPRP,-0.0116
9,RRIRKRPPRLPRPRPRPLYWPRP,0.149
10,RRIRRRPPRLPRPRPRPETYPRP,0.0872
11,RRIRGRPPRLPRPRPRPIWKPRP,0.155
12,RRIRYRPPRLPRPRPRPMIKPRP,0.0227
13,RRIRRRPPRLPRPRPRPCMVPRP,0.106
14,RRIRFRPPRLPRPRPRPDLHPRP,-0.274
15,RRIRKRPPRLPRPRPRPQSGPRP,0.149
16,RRIRCRPPRLPRPRPRPINCPRP,-0.0582
17,RRIRLRPPRLPRPRPRPPPDPRP,1.19
18,RRIRPRPPRLPRPRPRPWQPPRP,-0.0506
19,RRIRMRPPRLPRPRPRPAIMPRP,0.284
20,RRIRWRPPRLPRPRPRPERPPRP,0.292
21,RRIRYRPPRLPRPRPRPYSIPRP,-0.264

# From the supplement of paper PMC9112550, “Optimization of the antimicrobial peptide Bac7 by deep mutational scanning” (BMC Biology, 2022)
